Like-named read-outs stand apart in the source and are kept apart here.
Columns and labels:
[1] = test system: HCV ORFs (Gal4-DB fusions); type: binding, HCV genotype 1b, isolate con1; settings: human protein listed by gene symbol; the value names the HCV protein it interacts with
[2] = molecular target: T1, HCV ORFs (Gal4-DB fusions) (Hepatitis C virus genotype 1b, UniProt Q9WMX2); type: binding, HCV genotype 1b, isolate con1; settings: human protein as prey
T1 construct: expressed in transfected cells; host or cells: Saccharomyces cerevisiae MAV203 (IMAP1) / AH109 (IMAP2)

HCV proteins = molecular target: T2, HCV proteins (Hepatitis C virus genotype 1b, UniProt Q9WMX2); assay: Validation by Y2H pairwise matrices; type: binding;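 note: yeast two-hybrid pairwise tests of interactions first found in Y2H screens of HCV bait proteins against human cDNA libraries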
T2 construct: expressed in transfected cells
Experimental: A comprehensive interactome map between HCV and cellular proteins was generated by Y2H screens. Twenty seven constructs encoding full-length HCV mature proteins or discrete domains were cloned using a recombination-based cloning system (10) (FIG. 6). Four independent screens were performed with each HCV bait protein, probing two distinct human cDNA libraries (Supplementary Methods). […] Two validation methods were used to assess the confidence of the IMAP Y2H dataset.

[3] = validation of interaction with HCV protein NS3
[4] = validation of interaction with HCV protein CORE
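Throughout, for IMAP Y2H IMAP1 (number of IST): yeast two-hybrid screens using HCV genotype 1b proteins fused to Gal4-DB as baits against prey cDNA libraries from human spleen and foetal brain, IMAP1 via transformation and IMAP2 via mating.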
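Throughout, for Interaction with viral protein: yeast two-hybrid screens using HCV genotype 1b proteins fused to Gal4-DB as baits against prey cDNA libraries from human spleen and foetal brain, IMAP1 via transformation and IMAP2 via mating.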

Row | Molecule | Interaction with viral protein [1] | IMAP Y2H IMAP1 (number of IST) ([2]; HCV protein NS3 as bait) | Y2H matrices (HCV proteins; [3]) | IMAP Y2H IMAP1 (number of IST) ([2]; HCV protein CORE as bait) | Y2H matrices (HCV proteins; [4])
1 | XAB2 (protein, UniProt Q9HCS7 1-855, looked up) Pre-mRNA-splicing factor SYF1: MVVMARLSRPERPDLVFEEEDLPYEEEIMRNQFSVKCWLRYIEFKQGAPKPRLNQLYERALKLLPCSYKLWYRYLKARRAQVKHRCVTDPAYEDVNNCHERAFVFMHKMPRLWLDYCQFLMDQGRVTHTRRTFDRALRALPITQHSRIWPLYLRFLRSHPLPETAVRGYRRFLKLSPESAEEYIEYLKSSDRLDEAAQRLATVVNDERFVSKAGKSNYQLWHELCDLISQNPDKVQSLNVDAIIRGGLTRFTDQLGKLWCSLADYYIRSGHFEKARDVYEEAIRTVMTVRDFTQVFDSYAQFEESMIAAKMETASELGREEEDDVDLELRLARFEQLISRRPLLLNSVLLRQNPHHVHEWHKRVALHQGRPREIINTYTEAVQTVDPFKATGKPHTLWVAFAKFYEDNGQLDDARVILEKATKVNFKQVDDLASVWCQCGELELRHENYDEALRLLRKATALPARRAEYFDGSEPVQNRVYKSLKVWSMLADLEESLGTFQSTKAVYDRILDLRIATPQIVINYAMFLEEHKYFEESFKAYERGISLFKWPNVSDIWSTYLTKFIARYGGRKLERARDLFEQALDGCPPKYAKTLYLLYAQLEEEWGLARHAMAVYERATRAVEPAQQYDMFNIYIKRAAEIYGVTHTRGIYQKAIEVLSDEHAREMCLRFADMECKLGEIDRARAIYSFCSQICDPRTTGAFWQTWKDFEVRHGNEDTIKEMLRIRRSVQATYNTQVNFMASQMLKVSGSATGTVSDLAPGQSGMDDMKLLEQRAEQLAAEAERDQPLRAQSKILFVRSDASREELAELAQQVNPEEIQLGEDEDEDEMDLEPNEVRLEQQSVPAAVFGSLKED | NS3 | 2 | + | – | –
2 | TRIM23 (protein, UniProt P36406 1-574, looked up) E3 ubiquitin-protein ligase …: MATLVVNKLGAGVDSGRQGSRGTAVVKVLECGVCEDVFSLQGDKVPRLLLCGHTVCHDCLTRLPLHGRAIRCPFDRQVTDLGDSGVWGLKKNFALLELLERLQNGPIGQYGAAEESIGISGESIIRCDEDEAHLASVYCTVCATHLCSECSQVTHSTKTLAKHRRVPLADKPHEKTMCSQHQVHAIEFVCLEEGCQTSPLMCCVCKEYGKHQGHKHSVLEPEANQIRASILDMAHCIRTFTEEISDYSRKLVGIVQHIEGGEQIVEDGIGMAHTEHVPGTAENARSCIRAYFYDLHETLCRQEEMALSVVDAHVREKLIWLRQQQEDMTILLSEVSAACLHCEKTLQQDDCRVVLAKQEITRLLETLQKQQQQFTEVADHIQLDASIPVTFTKDNRVHIGPKMEIRVVTLGLDGAGKTTILFKLKQDEFMQPIPTIGFNVETVEYKNLKFTIWDVGGKHKLRPLWKHYYLNTQAVVFVVDSSHRDRISEAHSELAKLLTEKELRDALLLIFANKQDVAGALSVEEITELLSLHKLCCGRSWYIQGCDARSGMGLYEGLDWLSRQLVAAGVLDVA | NS3 | 5 | + | – | –
3 | SLC31A2 (protein, UniProt O15432 1-143, looked up) Protein SLC31A2: MAMHFIFSDTAVLLFDFWSVHSPAGMALSVLVLLLLAVLYEGIKVGKAKLLNQVLVNLPTSISQQTIAETDGDSAGSDSFPVGRTHHRWYLCHFGQSLIHVIQVVIGYFIMLAVMSYNTWIFLGVVLGSAVGYYLAYPLLSTA | CORE | – | – | 1 | +
4 | THAP1 (protein, UniProt Q9NVV9 1-213, looked up) THAP domain-containing …: MVQSCSAYGCKNRYDKDKPVSFHKFPLTRPSLCKEWEAAVRRKNFKPTKYSSICSEHFTPDCFKRECNNKLLKENAVPTIFLCTEPHDKKEDLLEPQEQLPPPPLPPPVSQVDAAIGLLMPPLQTPVNLSVFCDHNYTVEDTMHQRKRIHQLEQQVEKLRKKLKTAQQRCRRQERQLEKLKEVVHFQKEKDDVSERGYVILPNDYFEIVEVPA | NS3 | 1 | + | – | –
5 | PLSCR1 (protein, UniProt O15162 1-318, looked up) Phospholipid scramblase 1: MDKQNSQMNASHPETNLPVGYPPQYPPTAFQGPPGYSGYPGPQVSYPPPPAGHSGPGPAGFPVPNQPVYNQPVYNQPVGAAGVPWMPAPQPPLNCPPGLEYLSQIDQILIHQQIELLEVLTGFETNNKYEIKNSFGQRVYFAAEDTDCCTRNCCGPSRPFTLRIIDNMGQEVITLERPLRCSSCCCPCCLQEIEIQAPPGVPIGYVIQTWHPCLPKFTIQNEKREDVLKISGPCVVCSCCGDVDFEIKSLDEQCVVGKISKHWTGILREAFTDADNFGIQFPLDLDVKMKAVMIGACFLIDFMFFESTGSQEQKSGVW | CORE | – | – | 1 | +
6 | SSX2IP (protein, UniProt Q9Y2D8 1-614, looked up) Afadin- and …: MGDWMTVTDPGLSSESKTISQYTSETKMSPSSLYSQQVLCSSIPLSKNVHSFFSAFCTEDNIEQSISYLDQELTTFGFPSLYEESKGKETKRELNIVAVLNCMNELLVLQRKNLLAQENVETQNLKLGSDMDHLQSCYSKLKEQLETSRREMIGLQERDRQLQCKNRNLHQLLKNEKDEVQKLQNIIASRATQYNHDMKRKEREYNKLKERLHQLVMNKKDKKIAMDILNYVGRADGKRGSWRTGKTEARNEDEMYKILLNDYEYRQKQILMENAELKKVLQQMKKEMISLLSPQKKKPRERVDDSTGTVISDVEEDAGELSRESMWDLSCETVREQLTNSIRKQWRILKSHVEKLDNQVSKVHLEGFNDEDVISRQDHEQETEKLELEIQQCKEMIKTQQQLLQQQLATAYDDDTTSLLRDCYLLEEKERLKEEWSLFKEQKKNFERERRSFTEAAIRLGLERKAFEEERASWLKQQFLNMTTFDHQNSENVKLFSAFSGSSDWDNLIVHSRQPQKKPHSVSNGSPVCMSKLTKSLPASPSTSDFCQTRSCISEHSSINVLNITAEEIKPNQVGGECTNQKWSVASRPGSQEGCYSGCSLSYTNSHVEKDDLP | NS3 | 3 | + | – | –
7 | TBC1D2B (protein, UniProt Q9UPU7 1-963, looked up) TBC1 domain family member 2B: MPGAGARAEEGGGGGEGAAQGAAAEPGAGPAREPARLCGYLQKLSGKGPLRGYRSRWFVFDARRCYLYYFKSPQDALPLGHLDIADACFSYQGPDEAAEPGTEPPAHFQVHSAGAVTVLKAPNRQLMTYWLQELQQKRWEYCNSLDMVKWDSRTSPTPGDFPKGLVARDNTDLIYPHPNASAEKARNVLAVETVPGELVGEQAANQPAPGHPNSINFYSLKQWGNELKNSMSSFRPGRGHNDSRRTVFYTNEEWELLDPTPKDLEESIVQEEKKKLTPEGNKGVTGSGFPFDFGRNPYKGKRPLKDIIGSYKNRHSSGDPSSEGTSGSGSVSIRKPASEMQLQVQSQQEELEQLKKDLSSQKELVRLLQQTVRSSQYDKYFTSSRLCEGVPKDTLELLHQKDDQILGLTSQLERFSLEKESLQQEVRTLKSKVGELNEQLGMLMETIQAKDEVIIKLSEGEGNGPPPTVAPSSPSVVPVARDQLELDRLKDNLQGYKTQNKFLNKEILELSALRRNAERRERDLMAKYSSLEAKLCQIESKYLILLQEMKTPVCSEDQGPTREVIAQLLEDALQVESQEQPEQAFVKPHLVSEYDIYGFRTVPEDDEEEKLVAKVRALDLKTLYLTENQEVSTGVKWENYFASTVNREMMCSPELKNLIRAGIPHEHRSKVWKWCVDRHTRKFKDNTEPGHFQTLLQKALEKQNPASKQIELDLLRTLPNNKHYSCPTSEGIQKLRNVLLAFSWRNPDIGYCQGLNRLVAVALLYLEQEDAFWCLVTIVEVFMPRDYYTKTLLGSQVDQRVFRDLMSEKLPRLHGHFEQYKVDYTLITFNWFLVVFVDSVVSDILFKIWDSFLYEGPKVIFRFALALFKYKEEEILKLQDSMSIFKYLRYFTRTILDARKLISISFGDLNPFPLRQIRNRRAYHLEKVRLELTELEAIREDFLRERDTSPDKGELVSDEEEDT | NS3 | 1 | + | – | –
8 | USHBP1 (protein, UniProt Q8N6Y0 1-703, looked up) Harmonin-binding protein …: MSARATRPRSRRGRHAPPGELDPVAESSEEVEAASGSSKPSFAPPPVSSGLEQLGPMEEVSGQGLGSRTDKKMDGGSGRELASAPEVPHKPAVEAHQAPEAALQYKETVPPGNGAPDVFQTLQHTLSSLEAAAAAWRHQPPSHSGPMEFEGTSEGGAGSLGKQEGAGSCQREAARLAERNAWLRLALSSREDELVRTQASLEAIRAEKETLQKEVQELQDSLLRLEPCPHLSHNQAGGSGSGSSSSEADREPWETQDSFSLAHPLLRRLRSHSSTQILGSLPNQPLSPEMHIMEAQMEQLRGSIEKLKCFNRLLSAVLQGYKGRCEGLSMQLGQREAEATALHLALQYSEHCEEAYRVLLALREADSGAGDEAPMSDLQAAEKEAWRLLAQEEAAMDAGAQQNPQPSPEGSSVDKPTPQEVAFQLRSYVQRLQERRSLMKILSEPGPTLAPMPTVPRAEAMVQAILGTQAGPALPRLEKTQIQQDLVAAREALADLMLRLQLVRREKRGLELREAALRALGPAHVLLLEQLRWERAELQAGGANSSGGHSSGGGSSGDEEEWYQGLPAVPGGTSGIDGGQVGRAWDPEKLAQELAASLTRTLDLQEQLQSLRRELEQVAQKGRARRSQSAELNRDLCKAHSALVLAFRGAHRKQEEQRRKLEQQMALMEAQQAEEVAVLEATARALGKPRPPLPPPQLGDTFL | NS3 | 1 | + | – | –
